The source of these data is US20220257733A1, “ANTIGENIC POLYPEPTIDES AND METHODS OF USE THEREOF” (AGENUS INC., priority 2019, published 2022).

To fix the notation:
B1: YRLsPEPTPL (peptide)
peptide: YRL[pS]PEPTPL
notes: predicted HLA-C*07:02 (not tested on it)
B2: HRVsVILKL (peptide)
peptide: HRV[pS]VILKL
notes: predicted HLA-B*14:01 (not among the HLAs tested)
B3: SRKsFVFEL (peptide)
peptide: SRK[pS]FVFEL
notes: predicted HLA-B*08:01 (not among the HLAs tested)

Non-standard residues stand in square brackets, D forms with d. No end group written: not given here. pT = C[C@@H](OP(=O)(O)O)[C@H](N)C(=O)O; pS = N[C@@H](COP(=O)(O)O)C(=O)O

The first assay has as its target HLA A*02:01 (Homo sapiens, UniProt P04439, D140Y/D185E/D98H/E176V/E277Q/G131W/G231S/I119V/I121R/I166T/I218V/L300P/L318F/N151K/N90K/P208A/P217A/Q86G/Q94H/R138H/R169H/T345S). The assay can be described thus: AlphaScreen assay of peptide binding to HLA A*02:01. The following applies: biotinylated HLA A*02:01 with excess β2m, Michaelis-Menten fit. Set-up: key to Kd in nM A*02:01: NT means that binding was not tested; NB means no binding was detected; LB stands for low binding and indicates that while some binding was observed, it was below the level that would allow accurate calculation of a Kd. On the procedure: (§1) An AlphaScreen® assay was used to evaluate the binding of peptides to HLA molecules. Donor beads conjugated with streptavidin, and acceptor beads conjugated with the anti-human HLA class I antibody W6/32, were used to assess peptide binding. Biotinylated HLAs (A*02:01, B*07:02, C*07:01, or C*07:02) were mixed with a fixed excess of β2m and the mixtures added to each well of a 384-well microplate. Serial dilutions of the synthesized phosphopeptides were added to the wells, and the resultant HLA/β2/peptide mixtures were incubated overnight at 18° C. W6/32 conjugated acceptor beads were subsequently added to the wells, and the mixture was incubated for 1 hour at 21° C. Streptavidin conjugated donor beads were then added to the wells, and the mixture was incubated for a further 1 hour at 21° C.
(§2) The microplate was read using the PerkinElmer® plate reader, and data were plotted using the Michaelis-Menten equation to determine the Kd for each phosphopeptide.
Table 5 lists the Kd of each of the selected phosphopeptides to the indicated HLAs (A*02:01, B*07:02, C*07:01, or C*07:02). NT means that binding was not tested. NB means no binding was detected. […] In each case, the phosphopeptides bound as indicated below.
As for `CC(C)[C@H](NC(=O)CNC(=O)[C@@H]1CCCN1C(=O)[C@@H]1CCCN1C(=O)[C@@H](NC(=O)[C@H](CCCNC(=N)N)NC(=O)[C@@H]1CCCN1C(=O)[C@H](C)N)[C@@H](C)OP(=O)(O)O)C(=O)N[C@H](C(=O)N[C@@H](Cc1ccccc1)C(=O)O)[C@@H](C)O` [compound 120], the “Kd in nM A*02:01” value is given as “NB”.

On to `CC[C@H](C)[C@H](NC(=O)[C@H](CO)NC(=O)[C@H](CCCNC(=N)N)NC(=O)[C@H](COP(=O)(O)O)NC(=O)[C@H](CC(C)C)NC(=O)[C@@H](N)Cc1ccccc1)C(=O)N1CCC[C@H]1C(=O)N[C@@H](CO)C(=O)N[C@@H](CC(C)C)C(=O)O` [compound 228], for which the Kd was 641 nM.

On to `CC(C)C[C@H](NC(=O)[C@H](CCC(=O)O)NC(=O)[C@H](CCC(=O)O)NC(=O)[C@H](CC(C)C)NC(=O)[C@H](COP(=O)(O)O)NC(=O)CNC(=O)[C@H](Cc1c[nH]cn1)NC(=O)[C@H](Cc1ccccc1)NC(=O)[C@H](CC(C)C)NC(=O)[C@@H](N)CCCCN)C(=O)O` [compound 424], for which the dissociation constant (Kd) was 203 nM.

As for `CC[C@H](C)[C@H](NC(=O)[C@H](Cc1ccc(O)cc1)NC(=O)[C@H](COP(=O)(O)O)NC(=O)[C@H](CC(C)C)NC(=O)[C@H](CC(C)C)NC(=O)[C@@H](N)CCCCN)C(=O)N[C@@H](CCC(N)=O)C(=O)N[C@@H](CCCNC(=N)N)C(=O)N[C@@H](CC(C)C)C(=O)O` [compound 433], the Kd was 188 nM.

Turning to `CSCC[C@H](NC(=O)[C@H](CC(C)C)NC(=O)[C@@H](N)CCC(N)=O)C(=O)N[C@H](C(=O)N[C@@H](CC(C)C)C(=O)N[C@@H](CCC(=O)O)C(=O)N[C@@H](CC(N)=O)C(=O)N[C@@H](CCCCN)C(=O)N[C@@H](CC(C)C)C(=O)O)[C@@H](C)OP(=O)(O)O` [compound 654], the Kd was 231 nM.

Regarding `CC(C)C[C@H](NC(=O)[C@@H](NC(=O)[C@H](CC(C)C)NC(=O)[C@@H]1CCCN1C(=O)[C@H](COP(=O)(O)O)NC(=O)[C@@H]1CCCN1C(=O)[C@@H](NC(=O)[C@H](CCCNC(=N)N)NC(=O)[C@@H]1CCCN1C(=O)[C@@H](N)CCC(N)=O)[C@@H](C)O)C(C)C)C(=O)O` [compound 657], the “Kd in nM A*02:01” value is listed as “NB”.

In the case of `CC(C)C[C@H](NC(=O)[C@H](COP(=O)(O)O)NC(=O)[C@H](CCCNC(=N)N)NC(=O)[C@H](CCCCN)NC(=O)[C@H](CO)NC(=O)[C@H](CC(C)C)NC(=O)[C@H](Cc1ccccc1)NC(=O)[C@@H]1CCCN1C(=O)[C@@H](N)CO)C(=O)O` [compound 1157], the “Kd in nM A*02:01” value is “NB”.

For `CC[C@H](C)[C@H](NC(=O)[C@@H]1CCCN1C(=O)[C@H](COP(=O)(O)O)NC(=O)[C@H](CCCNC(=N)N)NC(=O)[C@@H]1CCCN1C(=O)[C@@H](N)CO)C(=O)N[C@@H](CO)C(=O)N1CCC[C@H]1C(=O)N[C@@H](CCC(=O)O)C(=O)N[C@@H](CC(C)C)C(=O)O` [compound 1179], the “Kd in nM A*02:01” value is given as “NB”.

A further assay addresses T1, Biotinylated HLA-A*02:01 with β2m (human, biotinylated (site not stated)).
T1 construct: MHC class I heavy chain mixed with excess β2m
The assay can be described thus: AlphaScreen; biotinylated HLA + excess β2m + peptide dilutions, W6/32 acceptor beads, streptavidin donor beads.
Conditions: not given
Here is the method:
as §1, §2
Regarding B1, the binding result is reported as “no binding”.

In the case of B2, the binding result is given as “no binding”.

Take B3: the binding result was “no binding”.

Turning to SPR[pS]PISPEL (predicted HLA-B*07:02) [SPRsPISPEL], the binding result was “no binding”.

With SPFLSKR[pS]L (predicted HLA-B*07:02) [SPFLSKRsL], the binding result was “no binding”.

For the molecule APR[pT]PPGVTF (predicted HLA-B*07:02) [APRtPPGVTF], the binding result is given as “no binding”.

The next assay has as its target T1, Biotinylated HLA-A*02:01 with β2m. The assay can be described thus: AlphaScreen; biotinylated HLA + excess β2m + peptide dilutions, W6/32 acceptor beads, streptavidin donor beads; Michaelis-Menten fit.
Conditions: not given
Here is the method:
as §1, §2
Consider QLM[pT]LENKL (predicted HLA-A*02:01) [QLMtLENKL], for which the Kd was 231 nM.

With KLFHG[pS]LEEL (predicted HLA-A*02:01) [KLFHGsLEEL], the Kd amounted to 203 nM.

With KLL[pS]YIQRL (predicted HLA-A*02:01) [KLLsYIQRL], the Kd is 188 nM.

In the case of FL[pS]RSIPSL (predicted HLA-A*02:01) [FLsRSIPSL], the Kd amounted to 641 nM.
